Like-named read-outs stand apart in the source and are kept apart here.
Assays:
4H3112-bH = molecular target: T1, 4H3112-bH; assay: two-hybrid library CCNG1;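 note: natural log of median RNA to DNA barcode read ratio; higher means stronger binding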
T1 chain: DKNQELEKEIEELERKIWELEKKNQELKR

4H3185-bH = molecular target: T2, 4H3185-bH; assay: two-hybrid library CCNG1;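 note: natural log of median RNA to DNA barcode read ratio; higher means stronger binding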
T2 chain: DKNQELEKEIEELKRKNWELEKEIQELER

4H319-bA = molecular target: T3, 4H319-bA; assay: two-hybrid library CCNG1;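 note: natural log of median RNA to DNA barcode read ratio; higher means stronger binding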
T3 chain: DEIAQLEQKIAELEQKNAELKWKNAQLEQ

4H331-bH = molecular target: T4, 4H331-bH; assay: two-hybrid library CCNG1;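 note: natural log of median RNA to DNA barcode read ratio; higher means stronger binding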
T4 chain: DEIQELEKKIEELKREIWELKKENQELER

4H3354-bH = molecular target: T5, 4H3354-bH; assay: two-hybrid library CCNG1;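 note: natural log of median RNA to DNA barcode read ratio; higher means stronger binding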
T5 chain: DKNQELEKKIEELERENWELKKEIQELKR

4H338-bH = molecular target: T6, 4H338-bH; assay: two-hybrid library CCNG1;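 note: natural log of median RNA to DNA barcode read ratio; higher means stronger binding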
T6 chain: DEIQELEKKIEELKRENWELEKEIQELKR

4H3427-bH = molecular target: T7, 4H3427-bH; assay: two-hybrid library CCNG1
T7 chain: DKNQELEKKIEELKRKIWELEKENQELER

4H346-bH = molecular target: T8, 4H346-bH; assay: two-hybrid library CCNG1
T8 chain: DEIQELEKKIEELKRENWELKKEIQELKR

4H3782-bH = molecular target: T9, 4H3782-bH; assay: two-hybrid library CCNG1
T9 chain: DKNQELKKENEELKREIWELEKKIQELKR

4H3855-bH = molecular target: T10, 4H3855-bH; assay: two-hybrid library CCNG1
T10 chain: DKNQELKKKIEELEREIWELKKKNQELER

4H3926-bH = molecular target: T11, 4H3926-bH; assay: two-hybrid library CCNG1
T11 chain: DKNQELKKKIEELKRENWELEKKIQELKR

4H4001-bH = molecular target: T12, 4H4001-bH; assay: two-hybrid library CCNG1
T12 chain: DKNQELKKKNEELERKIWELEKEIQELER

4H4073-bH = molecular target: T13, 4H4073-bH; assay: two-hybrid library CCNG1
T13 chain: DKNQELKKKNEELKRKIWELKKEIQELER

4H454-bH = molecular target: T14, 4H454-bH; assay: two-hybrid library CCNG1
T14 chain: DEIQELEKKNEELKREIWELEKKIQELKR

4H457-bH = molecular target: T15, 4H457-bH; assay: two-hybrid library CCNG1
T15 chain: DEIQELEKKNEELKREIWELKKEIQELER

4H568-bH = molecular target: T16, 4H568-bH; assay: two-hybrid library CCNG1
T16 chain: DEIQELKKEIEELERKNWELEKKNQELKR

4H575-bH = molecular target: T17, 4H575-bH; assay: two-hybrid library CCNG1
T17 chain: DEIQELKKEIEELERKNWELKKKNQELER

4H607-bH = molecular target: T18, 4H607-bH; assay: two-hybrid library CCNG1
T18 chain: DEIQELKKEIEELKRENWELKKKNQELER

4H683-bH = molecular target: T19, 4H683-bH; assay: two-hybrid library CCNG1
T19 chain: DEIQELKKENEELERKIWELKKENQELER

4H687-bH = molecular target: T20, 4H687-bH; assay: two-hybrid library CCNG1
T20 chain: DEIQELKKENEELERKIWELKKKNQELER

4H717-bH = molecular target: T21, 4H717-bH; assay: two-hybrid library CCNG1
T21 chain: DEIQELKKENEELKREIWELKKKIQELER

4H72-bH = molecular target: T22, 4H72-bH; assay: two-hybrid library CCNG1
T22 chain: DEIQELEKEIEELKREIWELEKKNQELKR

4H780-bH = molecular target: T23, 4H780-bH; assay: two-hybrid library CCNG1
T23 chain: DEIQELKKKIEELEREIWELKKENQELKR

4H797-bH = molecular target: T24, 4H797-bH; assay: two-hybrid library CCNG1
T24 chain: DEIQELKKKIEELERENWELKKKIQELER

4H855-bH = molecular target: T25, 4H855-bH; assay: two-hybrid library CCNG1
T25 chain: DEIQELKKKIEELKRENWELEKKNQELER

4H883-bH = molecular target: T26, 4H883-bH; assay: two-hybrid library CCNG1
T26 chain: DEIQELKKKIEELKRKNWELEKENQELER

4H908-bH = molecular target: T27, 4H908-bH; assay: two-hybrid library CCNG1
T27 chain: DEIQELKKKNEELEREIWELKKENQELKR

4H918-bH = molecular target: T28, 4H918-bH; assay: two-hybrid library CCNG1
T28 chain: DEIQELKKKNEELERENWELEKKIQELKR

4H953-bH = molecular target: T29, 4H953-bH; assay: two-hybrid library CCNG1
T29 chain: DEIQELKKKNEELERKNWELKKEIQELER

4H967-bH = molecular target: T30, 4H967-bH; assay: two-hybrid library CCNG1
T30 chain: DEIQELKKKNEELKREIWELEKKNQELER

4H968-bH = molecular target: T31, 4H968-bH; assay: two-hybrid library CCNG1
T31 chain: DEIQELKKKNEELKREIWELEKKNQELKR

P8A-bH = molecular target: T32, P8A-bH; assay: two-hybrid library CCNG1
T32 chain: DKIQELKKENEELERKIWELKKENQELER

P9A-bH = molecular target: T33, P9A-bH; assay: two-hybrid library CCNG1
T33 chain: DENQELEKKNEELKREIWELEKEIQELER

APC1015-AA = molecular target: T34, APC1015-AA; assay: two-hybrid library CCmax
T34 chain: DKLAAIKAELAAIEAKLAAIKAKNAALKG

APC1434-AA = molecular target: T35, APC1434-AA; assay: two-hybrid library CCmax; conditions: mean of both orientations
T35 chain: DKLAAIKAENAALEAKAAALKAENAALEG

APC2237-AA = molecular target: T36, APC2237-AA; assay: two-hybrid library CCmax; conditions: mean of both orientations
T36 chain: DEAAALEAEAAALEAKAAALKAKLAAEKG

APC232-AA = molecular target: T37, APC232-AA; assay: two-hybrid library CCmax; conditions: mean of both orientations
T37 chain: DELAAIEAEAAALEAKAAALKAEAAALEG

APC2405-AA = molecular target: T38, APC2405-AA; assay: two-hybrid library CCmax; conditions: mean of both orientations
T38 chain: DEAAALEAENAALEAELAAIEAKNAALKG

APC3645-AA = molecular target: T39, APC3645-AA; assay: two-hybrid library CCmax; conditions: mean of both orientations
T39 chain: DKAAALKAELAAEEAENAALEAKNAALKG

APC4011-AA = molecular target: T40, APC4011-AA; assay: two-hybrid library CCmax; conditions: mean of both orientations
T40 chain: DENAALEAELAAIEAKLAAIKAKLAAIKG

APC4264-AA = molecular target: T41, APC4264-AA; assay: two-hybrid library CCmax
T41 chain: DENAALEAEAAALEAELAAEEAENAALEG

APC4436-AA = molecular target: T42, APC4436-AA; assay: two-hybrid library CCmax; conditions: mean of both orientations
T42 chain: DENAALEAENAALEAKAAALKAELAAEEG

APC5383-AA = molecular target: T43, APC5383-AA; assay: two-hybrid library CCmax; conditions: mean of both orientations
T43 chain: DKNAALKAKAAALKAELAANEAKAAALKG

APC6108-AA = molecular target: T44, APC6108-AA; assay: two-hybrid library CCmax; conditions: mean of both orientations
T44 chain: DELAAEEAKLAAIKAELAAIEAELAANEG

APC7099-AA = molecular target: T45, APC7099-AA; assay: two-hybrid library CCmax; conditions: mean of both orientations
T45 chain: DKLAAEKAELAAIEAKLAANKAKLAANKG

APC8191-AA = molecular target: T46, APC8191-AA; assay: two-hybrid library CCmax; conditions: mean of both orientations
T46 chain: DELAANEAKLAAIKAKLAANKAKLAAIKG

APC8910-AA = molecular target: T47, APC8910-AA; assay: two-hybrid library CCmax; conditions: mean of both orientations
T47 chain: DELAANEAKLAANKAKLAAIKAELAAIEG

APC9096-AA = molecular target: T48, APC9096-AA; assay: two-hybrid library CCmax; conditions: mean of both orientations
T48 chain: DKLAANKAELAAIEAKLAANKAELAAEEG

APC9319-AA = molecular target: T49, APC9319-AA; assay: two-hybrid library CCmax; conditions: mean of both orientations
T49 chain: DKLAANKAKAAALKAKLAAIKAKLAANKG

B1: 4H3112-bH (peptide)
chain: DKNQELEKEIEELERKIWELEKKNQELKR
4H3112-bH
  interaction score: 1.18
4H3185-bH
  interaction score: -0.575
4H319-bA
  interaction score: -3.07
4H331-bH
  interaction score: 0.991
4H3354-bH
  interaction score: 0.156
4H338-bH
  interaction score: 1.72
4H3427-bH
  interaction score: 1.07
4H346-bH
  interaction score: 0.584
4H3782-bH
  interaction score: 0.0549
4H3855-bH
  interaction score: 0.754
4H3926-bH
  interaction score: 0.42
4H4001-bH
  interaction score: 0.971
4H4073-bH
  interaction score: 1.57
4H454-bH
  interaction score: 0.624
4H457-bH
  interaction score: -1.29
4H568-bH
  interaction score: -0.443
4H575-bH
  interaction score: -0.872
4H607-bH
  interaction score: 0.768
4H683-bH
  interaction score: 0.204
4H687-bH
  interaction score: -0.713
4H717-bH
  interaction score: -0.259
4H72-bH
  interaction score: 0.428
4H780-bH
  interaction score: 0.704
4H797-bH
  interaction score: -0.951
4H855-bH
  interaction score: -2.78
4H883-bH
  interaction score: 0.871
4H908-bH
  interaction score: -0.43
4H918-bH
  interaction score: 0.72
4H953-bH
  interaction score: -0.641
4H967-bH
  interaction score: 1.34
4H968-bH
  interaction score: 1.05

B2: P8A-bH (peptide)
chain: DKIQELKKENEELERKIWELKKENQELER
P8A-bH
  interaction score: 0.54
P9A-bH
  interaction score: -0.34

B3: 4H807-AA (peptide)
chain: DEIAALKAKIAALEAKIAALEAKNAALEG
APC1015-AA; mean of both orientations
  interaction score: -0.714
APC1434-AA
  interaction score: -1.82
APC2237-AA
  interaction score: -1.21
APC232-AA
  interaction score: -1.73
APC2405-AA
  interaction score: -1.49
APC3645-AA
  interaction score: -1.3
APC4011-AA
  interaction score: 1.45
APC4264-AA
  interaction score: -1.72
APC4436-AA
  interaction score: -1.65
APC5383-AA
  interaction score: -1.89
APC6108-AA
  interaction score: -1.43
APC7099-AA
  interaction score: -1.32
APC8191-AA
  interaction score: -2.1
APC8910-AA
  interaction score: -1.59
APC9096-AA
  interaction score: -1.75
APC9319-AA
  interaction score: -1.71

B4: APC1015-AA (peptide)
chain: DKLAAIKAELAAIEAKLAAIKAKNAALKG
APC1015-AA
  interaction score: -0.544
APC1434-AA
  interaction score: -1.58
APC2237-AA
  interaction score: -0.0287
APC232-AA
  interaction score: 0.0398
APC2405-AA
  interaction score: -1.26
APC3645-AA
  interaction score: -1.79
APC4011-AA
  interaction score: 1.66
APC4264-AA; mean of both orientations
  interaction score: -1.82
APC4436-AA
  interaction score: -1.14
APC5383-AA
  interaction score: -1.69
APC6108-AA
  interaction score: 0.792
APC7099-AA
  interaction score: -2.02
APC8191-AA
  interaction score: -1.8
APC8910-AA
  interaction score: -1.34
APC9096-AA
  interaction score: -1.67
APC9319-AA
  interaction score: -1.82

From PMC10397247
